Values belong to the substance of their own block, whether it stands above or below them.
What was measured:
[1] = biological target: extracellular signal-regulated kinase 1 (ERK1) (rat)
[2] = biological target: microtubule-associated protein 2 (MAP2)

specific activity of ERK1 with MAP2 after dephosphorylation [1]: 4 nmol/min/mg
Substance: catalytic subunit of phosphatase 2a (enzyme)

specific activity with MAP2 [2]: 300 nmol/min/mg
Substance: extracellular signal-regulated kinase 1 (ERK1) (enzyme)

specific activity (phosphorylation of substrate) (MBP): 1 nmol/min/mg | specific activity (phosphorylation of substrate) [2]: 1 nmol/min/mg
Substance: recombinant ERK2 (enzyme)

Source: US5595904
